Primed or numbered codes have the meaning given here. Ends that are not written are not given here. DBCO′ = not defined here

In series [1] the target is T1, Factor XIIIa (Homo sapiens, UniProt P00488).
T1 construct: purchased Fibrogammin®
T1 sequence (P00488 39-732 limits assumed): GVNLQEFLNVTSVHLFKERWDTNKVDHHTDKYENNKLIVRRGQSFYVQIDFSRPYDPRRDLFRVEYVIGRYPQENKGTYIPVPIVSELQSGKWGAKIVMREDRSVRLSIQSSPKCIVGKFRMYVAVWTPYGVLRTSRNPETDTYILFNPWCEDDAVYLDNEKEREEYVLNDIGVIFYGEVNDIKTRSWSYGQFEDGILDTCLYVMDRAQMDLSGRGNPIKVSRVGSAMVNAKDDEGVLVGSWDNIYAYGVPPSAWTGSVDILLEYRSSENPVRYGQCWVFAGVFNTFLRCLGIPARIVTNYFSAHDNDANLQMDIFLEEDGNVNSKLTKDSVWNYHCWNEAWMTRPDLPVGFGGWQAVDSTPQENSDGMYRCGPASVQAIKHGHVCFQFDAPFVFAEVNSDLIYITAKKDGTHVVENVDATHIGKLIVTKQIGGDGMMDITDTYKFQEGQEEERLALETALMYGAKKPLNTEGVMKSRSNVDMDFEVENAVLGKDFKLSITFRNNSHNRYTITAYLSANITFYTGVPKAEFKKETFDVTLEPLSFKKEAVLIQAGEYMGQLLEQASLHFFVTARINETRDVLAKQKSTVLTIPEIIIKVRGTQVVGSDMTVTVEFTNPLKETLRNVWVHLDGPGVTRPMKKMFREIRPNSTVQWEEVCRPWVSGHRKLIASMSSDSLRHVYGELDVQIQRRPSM
Briefly: Crosslinking of D domain peptides to a glutamine substrate derived from α-2 plasmin inhibitor, catalyzed by FXIIIa, RP-HPLC. Format: biochemical. From the text:
Using solid phase peptide synthesis, the isolated peptide sequence of the D domain of human IGF-I (SEQ ID NO: 1) and mouse IGF-I (SEQ ID NO: 6) were synthesized and purified using preparative HPLC to achieve >95% purity. Additionally, a collection of N-terminally truncated versions of both sequences were created, in order to test if 7 or less amino acids are sufficient to be recognized by Factor XIIIa. According to a trypsin digest of coupled IGF-I, only K68 is modified and therefore, a reduction of the sequence to the last 3 amino acids could be possible. The truncated versions were manufactured and purified accordingly. Lyophilized peptides were dissolved in Tris buffer (20 mM Tris-HCl, 150 mM NaCl, pH 7.6) and reacted with a glutamine substrate (SEQ ID NO: 13, derived from α-2 plasmin inhibitor) in presence of 0.1 M calcium chloride and 10 U/ml Factor XIIIa (Fibrogammin®, activated with 0.02 U/ml thrombin). Following 30 minutes incubation at 37° C., the coupling reaction was stopped and the amount of crosslinked peptide analyzed using analytical RP-HPLC. The crosslinking ratios using equimolar amounts of both peptides (D domain and glutamine acceptor) are depicted in Table 1.

Series [2] deals with fibronectin. The series is described as follows: Immobilization of dye-D domain conjugate on cell derived, isolated ECM / fibronectin using FXIIIa. It counts as biochemical. To be noted: ECM from NIH3T3 fibroblasts (FIG. 2). From the text: As proof of concept (for covalent attachment of a bioactive factor to extracellular matrix (ECM), we modified the D domain of IGF-I (SEQ ID NO: 1) with an dibenzocyclooctyne group (DBCO) at the N-terminus (SEQ: DBCO-PLKPAKSA), followed by coupling of a small molecule (fluorescent dye Azide Fluor 488) onto cell derived, isolated ECM. The ECM was produced by NIH3T3 fibroblasts and on day 6 decellularized and washed to remove cell debris and adsorbed proteins. Taking advantage of the intrinsic property of fibronectin, representing a glutamine donor for Factor XIII, we immobilized the fluorescent dye-D domain conjugate on the N-terminus of fibronectin without impairment of ECM structure and integrity.
FIG. 2: Immobilization of the covalent conjugate of the D domain (SEQ ID NO: 1) and the small molecule Azide Fluor 488 on fibronectin (isolated from human plasma) catalyzed by transglutaminase. The conjugates coupled to fibronectin in absence (lane #1) and presence (lane #2) of Factor XIIIa were transferred to a 5% SDS-PAGE gel and analyzed for fluorescence.
FIG. 3: Confocal laser scanning microscopy images of the Azide Fluor 488-D domain conjugate immobilized on isolated ECM in presence (panel 1) or absence (panel 2) of factor XIIIa. The green fluorescence of the immobilized dye-peptide conjugate co-localized with fibronectin (red fluorescence).

The target in series [3] is T1, Factor XIIIa. The series is described as follows: Crosslinking of D domain peptides to a glutamine substrate derived from α-2 plasmin inhibitor, catalyzed by FXIIIa, RP-HPLC. Format: biochemical. This is another data set of the same source.
For series [4], the system named is fibronectin. Briefly: Immobilization of eGFP modified with the D domain on plasma fibronectin and ECM using factor XIIIa. Format: biochemical. Here is the method:
The same coupling reaction as described for IGF-I (Example 3) was also performed with enhanced green fluorescent protein (eGFP), previously modified with the D domain of human IGF-I (SEQ ID NO: 1), and immobilized using factor XIIIa (FIGS. 8A-8B). […] FIGS. 8A-8B: (8A) Western Blot of enhanced green fluorescent protein modified with the D domain (SEQ ID NO: 1) (eGFP-D domain, lane #1) after incubation with fibronectin in absence (lane #2) and presence (lane #3) of Factor XIIIa. (8B) Confocal laser scanning microscopy images of eGFP modified with the D domain (SEQ ID NO: 1) and immobilized on isolated ECM in presence (panel 1) or absence (panel 2) of factor XIIIa. The immobilized eGFP was visualized with a monoclonal eGFP antibody (green) und co-localized with fibronectin (red).

In series [5] the target is T2, D domain of human IGF-I (SEQ ID NO: 1).
T2 chain: PLKPAKSA

The target in series [6] is T3, D domain of mouse IGF-I (SEQ ID NO: 6).
T3 chain: PLKPTKAA

For series [7], the target named is T4, N-terminally truncated D domain of human IGF-I, SEQ ID NO: 2.
T4 chain: LKPAKSA

Series [8] has as its target T5, N-terminally truncated D domain of human IGF-I, SEQ ID NO: 3.
T5 chain: KPAKSA

Series [9] concerns the target T6, N-terminally truncated D domain of human IGF-I, SEQ ID NO: 4.
T6 chain: PAKSA

Series [10] deals with T7, N-terminally truncated D domain of human IGF-I, SEQ ID NO: 5.
T7 chain: AKSA

The target of series [11] is T8, N-terminally truncated D domain of mouse IGF-I, SEQ ID NO: 10.
T8 chain: TKAA

For series [12], the target named is T9, N-terminally truncated D domain of mouse IGF-I, SEQ ID NO: 7.
T9 chain: LKPTKAA

Series [13] has as its target T10, N-terminally truncated D domain of mouse IGF-I, SEQ ID NO: 8.
T10 chain: KPTKAA

Series [14] addresses T11, N-terminally truncated D domain of mouse IGF-I, SEQ ID NO: 9.
T11 chain: PTKAA

The next series addresses T12, SEQ ID NO: 10 (-AS 67).
T12 chain: KAA

The target of the next series is T13, SEQ ID NO: 5 (-AS 67).
T13 chain: KSA

Where [15] appears, read: equimolar peptide and glutamine substrate, incubation for 30 minutes with 10 U/ml FXIIIa, 37° C.

“AKSA (listed as Homo sapiens) [SEQ ID NO: 5, N-terminally truncated human D domain]”: in the series with Factor XIIIa [1] (setting [15]), the “Crosslinking Efficacy (1:1 molar ratio)*” value amounted to 49.52 ± 1.29.
For “Alexa488-D domain: DBCO-PLKPAKSA coupled with fluorescent dye Azide Fluor 488 ({Azide Fluor 488-DBCO′}-PLKPAKSA)”, the “immobilization on ECM” value in the series with fibronectin [2] was “high efficacy”.
As for “KAA (listed as Mus musculus) [SEQ ID NO: 10 (−AS 67)]”, the “Crosslinking Efficacy (1:1 molar ratio)*” value in the series with Factor XIIIa [1] (setting [15]) is on record as 24.68 ± 3.42.
Still for that read-out and setting: to “KPAKSA (listed as Homo sapiens) [SEQ ID NO: 3, N-terminally truncated human D domain]” belongs 58.37 ± 2.10.
Still for that read-out and setting: in the case of “KPTKAA (listed as Mus musculus) [SEQ ID NO: 8, N-terminally truncated mouse D domain]” it was 55.68 ± 3.25; in that of “KSA (listed as Homo sapiens) [SEQ ID NO: 5 (−AS 67)]”, 21.40 ± 1.96; in that of “LKPAKSA (listed as Homo sapiens) [SEQ ID NO: 2, N-terminally truncated human D domain]”, 72.45 ± 1.57.
The same measure, in the same setting: to “LKPTKAA (listed as Mus musculus) [SEQ ID NO: 7, N-terminally truncated mouse D domain]” belongs 69.42 ± 8.62; to “PAKSA (listed as Homo sapiens) [SEQ ID NO: 4, N-terminally truncated human D domain]”, 44.18 ± 3.23.
For “PLKPAKSA (listed as Homo sapiens) [SEQ ID NO: 1, isolated D domain of human IGF-I]”, the “Crosslinking Efficacy (1:1 molar ratio)*” value with Factor XIIIa [1] (setting [15]) was 82.94 ± 0.79; in the series with Factor XIIIa [1] (molar excess of the glutamine sequence 1), 81.06 ± 5.13; with Factor XIIIa [3] (molar excess of the glutamine sequence 0.5) it was 44.48 ± 2.45; with Factor XIIIa [3] (molar excess of the glutamine sequence 2.5), 84.67 ± 2.02; with Factor XIIIa [3] (molar excess of the glutamine sequence 3.75) it was 87.53 ± 5.33; with Factor XIIIa [3] (molar excess of the glutamine sequence 5), 84.91 ± 6.23. Moreover, the “Crosslinking Efficacy (1:1 molar ratio)*” value with Factor XIIIa [3] (molar excess of the glutamine sequence 10) came out at 88.67 ± 6.52. Further, the “conversion, time course of the coupling reaction with the Q peptide” value with Factor XIIIa [3] (within 10 minutes (FIG. 1)) was “about 80%”.
Take “PLKPTKAA (listed as Mus musculus) [SEQ ID NO: 6, isolated D domain of mouse IGF-I]”: the “Crosslinking Efficacy (1:1 molar ratio)*” value with Factor XIIIa [1] (setting [15]) stood at 84.16 ± 7.76.
The same measure, in the same setting: to “PTKAA (listed as Mus musculus) [SEQ ID NO: 9, N-terminally truncated mouse D domain]” belongs 33.69 ± 1.41; to “TKAA (listed as Mus musculus) [SEQ ID NO: 10, N-terminally truncated mouse D domain]”, 39.26 ± 4.07.
As for “eGFP-D domain conjugate: enhanced green fluorescent protein modified with the D domain of human IGF-I (SEQ ID NO: 1) (PLKPAKSA; also: conjugated to eGFP)”, the “conjugation to plasma fibronectin (western blot)” value with fibronectin [4] (factor XIIIa (FIG. 8A)) is recorded as “effective conjugation”. For the same molecule, in the series on fibronectin [4] (factor XIIIa (FIG. 8B)), the “immobilization of the modified protein on ECM” value is recorded as “confirmed”.

B1: human Factor XIIIa (Fibrogammin, activated with 0.02 U/ml thrombin) (protein)
chain: T1 sequence (P00488 39-732 limits assumed)
With B1, the Crosslinking Efficacy (1:1 molar ratio) to the glutamine substrate derived from α2PI, 30 min, 10 U/ml FXIIIa, RP-HPLC in series [5] amounted to 82.9%; in series [6], 84.2%; in [7] it was 72.5%; in series [8], 58.4%; in [9], 44.2%; in series [10] it was 49.5%. In addition, the Crosslinking Efficacy (1:1 molar ratio) to the glutamine substrate derived from α2PI, 30 min, 10 U/ml FXIIIa, RP-HPLC in [11] stood at 39.3%; in series [12] it was 69.4%; in [13] it was 55.7%; in series [14], 33.7%; with SEQ ID NO: 10 (-AS 67), 24.7%; with SEQ ID NO: 5 (-AS 67), 21.4%. Moreover, the “conversion in the time course of the coupling reaction between the Q peptide and the D domain” value in series [5] is “achieving about 80% conversion within 10 minutes”.
